Residue numbers refer to the chain shown, from its start. Numbers in names are those of the source.
B1: FPht Q343R (complex)
chain 1: DPVLCFTQYEESSGKCKGLLGGGVSVEDCCLNTAFAYQKRSGGLCQPCRSPRWSLWSTWAPCSVTCSEGSQLRYRRCVGWNGQCSGKVAPGTLEWQLQACEDQQCCPEMGGWSGWGPWEPCSVTCSKGTRTRRRACNHPAPKCGGHCPGQAQESEACDTQQVCPTHGAWATWGPWTPCSASCHGGPHEPKETRSRKCSAPEPSQKPPGKPCPGLAYEQRRCTGLPPCP
chain 2: VAGGWGPWGPVSPCPVTCGLGQTMEQRTCNHPVPQHGGPFCAGDATRTHICNTAVPCPVDGEWDSWGEWSPCIRRNMKSISCQEIPGRQSRGRTCRGRKFDGHRCAGQQQDIRHCYSIQHCPLKGSWSEWSTWGLCMPPCGPNPTRARQRLCTPLLPKYPPTVSMVEGQGEKNVTFWGRPLPRCEELQGQKLVVEEKRPCLHVPACKDPEEEEL
B2: FPht Y414D (complex)
chain 1: B1 chain 1
chain 2: B1 chain 2 with R88Q, Y159D

Biological target: Biotinylated C3b (human, UniProt P01024 23-667; P01024 749-1663, biotin (Maleimide-PEG2-Biotin))
Experiment: BLI

Sequence of Biotinylated C3b (P01024 23-667, chain 1 of 2): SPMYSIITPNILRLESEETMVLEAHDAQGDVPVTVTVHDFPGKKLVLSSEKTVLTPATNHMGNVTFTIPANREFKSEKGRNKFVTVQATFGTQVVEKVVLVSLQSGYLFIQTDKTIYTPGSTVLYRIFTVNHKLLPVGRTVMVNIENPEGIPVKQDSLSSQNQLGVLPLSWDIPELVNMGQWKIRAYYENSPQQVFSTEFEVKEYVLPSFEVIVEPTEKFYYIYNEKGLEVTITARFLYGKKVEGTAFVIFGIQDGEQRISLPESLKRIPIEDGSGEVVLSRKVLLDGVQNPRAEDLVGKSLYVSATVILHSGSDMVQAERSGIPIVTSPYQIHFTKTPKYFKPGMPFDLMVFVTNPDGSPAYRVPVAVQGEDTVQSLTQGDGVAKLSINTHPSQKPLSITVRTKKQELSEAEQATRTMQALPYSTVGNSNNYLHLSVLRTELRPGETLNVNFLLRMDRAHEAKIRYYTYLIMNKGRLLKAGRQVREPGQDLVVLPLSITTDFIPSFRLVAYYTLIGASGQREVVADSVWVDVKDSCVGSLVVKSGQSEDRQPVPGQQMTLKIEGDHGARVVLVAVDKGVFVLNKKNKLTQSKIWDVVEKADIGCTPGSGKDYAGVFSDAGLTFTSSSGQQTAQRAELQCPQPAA
Sequence of Biotinylated C3b (P01024 749-1663, chain 2 of 2): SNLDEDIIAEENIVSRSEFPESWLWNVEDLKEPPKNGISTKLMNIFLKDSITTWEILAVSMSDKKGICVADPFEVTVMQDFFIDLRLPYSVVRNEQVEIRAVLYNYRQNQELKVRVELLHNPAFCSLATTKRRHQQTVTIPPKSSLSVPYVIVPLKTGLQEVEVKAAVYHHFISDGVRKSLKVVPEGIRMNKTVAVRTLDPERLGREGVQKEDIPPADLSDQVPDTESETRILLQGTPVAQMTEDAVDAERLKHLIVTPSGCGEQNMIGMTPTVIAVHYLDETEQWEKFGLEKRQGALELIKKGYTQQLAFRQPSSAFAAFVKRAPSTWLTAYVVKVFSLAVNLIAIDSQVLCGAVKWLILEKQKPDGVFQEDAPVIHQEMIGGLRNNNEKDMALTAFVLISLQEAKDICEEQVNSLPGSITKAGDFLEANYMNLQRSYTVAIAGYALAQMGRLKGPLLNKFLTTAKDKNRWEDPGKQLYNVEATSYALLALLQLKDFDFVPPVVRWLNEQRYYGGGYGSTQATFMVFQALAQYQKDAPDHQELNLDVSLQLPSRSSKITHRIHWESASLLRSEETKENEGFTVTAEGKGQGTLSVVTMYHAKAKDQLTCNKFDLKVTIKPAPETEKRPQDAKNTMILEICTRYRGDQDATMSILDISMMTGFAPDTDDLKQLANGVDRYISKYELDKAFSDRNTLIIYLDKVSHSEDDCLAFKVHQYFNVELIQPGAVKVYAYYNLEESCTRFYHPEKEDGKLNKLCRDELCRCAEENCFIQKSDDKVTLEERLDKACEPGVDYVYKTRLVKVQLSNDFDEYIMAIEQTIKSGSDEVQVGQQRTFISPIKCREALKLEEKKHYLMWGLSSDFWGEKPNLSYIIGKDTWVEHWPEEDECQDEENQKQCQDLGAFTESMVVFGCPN

Row | Binder | Kd [µM]
1 | B1 | 4
2 | B2 | 5

Source: article PMC6713926 (2019)
